4 substances from article PMC6899989 can be followed below.

Experiment [1] has as its target N-terminal His6-tagged RpPpsR2 (gene repressor from Rhodopseudomonas palustris) (Rhodopseudomonas palustris). Put plainly: SEC; RpPpsR2 in 5 mM DTT. On the technique in general: In gel filtration, larger molecules generally elute earlier.
The target of experiment [2] is RpBphP1, sample used for size exclusion chromatography (synthesised gene) (Rhodopseudomonas palustris). Put plainly: SEC; Superose 12 10/300 GL, 200 μL at 1-4 mg/mL, 5 mM TrisHCl pH 8, 10 mM NaCl; in the dark (Pfr state).
Experiment [3] shares this target. Briefly: SEC; Superose 12 10/300 GL, 200 μL at 1-4 mg/mL, 5 mM TrisHCl pH 8, 10 mM NaCl; after illumination with 760 nm light for 5 min (Pr state).
Experiment [4] addresses full-length RpBphP1, SAXS sample (gene PCR amplified from Rps. palustris strain 2.1.6, in pET28a) (Rhodopseudomonas palustris). Put plainly: SAXS; 5 mM Tris pH 8, 1 and 4 mg/mL, 8 °C; dark-purified protein measured in darkness (Pfr state); mass by SAXS MoW2, ab-initio envelopes.
Experiment [5] has the same target. Put plainly: SAXS; 5 mM Tris pH 8, 1 and 4 mg/mL, 8 °C; continuous illumination with 760 nm light (Pr state); mass by SAXS MoW2, ab-initio envelopes.
Experiment [6] addresses N-terminal His6-tagged RpPpsR2 (gene repressor from Rhodopseudomonas palustris) (Rhodopseudomonas palustris). Put plainly: pull-down; Ni(II)-affinity chromatography on 1 mL His-Trap HP; His6-RpPpsR2 mixed 1:4 with untagged RpBphP1 or RpBphP1ΔHOS; illuminated for 5 min with 760 nm light (Pr state); imidazole elution monitored at 280 and 400 nm; SDS/PAGE scan of peak BP.

The stoichiometry N is the number of molecules, sites or subunits per partner or assembly. With “N-terminal His6-tagged RpPpsR2 (gene repressor from Rhodopseudomonas palustris) (natural protein)”, in experiment [1], the stoichiometry N is 2.

As to “RpBphP1, sample used for size exclusion chromatography (synthesised gene) (natural protein)”, the stoichiometry N in experiment [2] and in experiment [3] was 2 each time. As for “full-length RpBphP1, SAXS sample (gene PCR amplified from Rps. palustris strain 2.1.6, in pET28a) (natural protein)”, the stoichiometry N in experiment [4] and in experiment [5] was 2 in each case. In experiment [6], “untagged full-length RpBphP1 (bacteriophytochrome from Rhodopseudomonas palustris) (natural protein)” showed a stoichiometry N (RpBphP1 per RpPpsR2) of 2.
